Results as given in US20240010695A1 (ASHER BIOTHERAPEUTICS, published 2024).

Target: Wild type IL-10 dimer fused to xhCD8b (format E) (Homo sapiens (Human), UniProt P22301 19-178; P22301 19-178)
Assay: SPR 37 C; fusion captured via Fc, IL-10RA ECD analyte
Experimental: To determine the affinities with IL-10RA, antibody or fusion proteins were captured onto the CM4 sensor chip via their Fc by covalently anti-human Fc antibody (Southern Biotech, Catalog No. 2081-01). Protein was not captured on flow cell 1 to serve as a reference surface. In-house generated human IL-10RA ECD, diluted in HBS-P+ buffer supplemented with 1 g/L BSA, at concentrations of 8, 40, 200, 1000, and 5000 nM, or buffer was flowed over the surface-captured fusion protein for 2 minutes at 30 μL/min. Dissociation was monitored for 4-5 minutes, and the anti-hIgG-Fc surface was regenerated with three 30-seconds injections of 75 mM phosphoric acid between analysis cycles. Binding data were analyzed by Biacore® Evaluation Software version 3.2 using a 1:1 Langmuir with mass transport model or by steady-state affinity analysis.
As shown in Example 3, fusion proteins comprising CD8 antibodies and IL-10 monomer polypeptides selectively activated CD8+ T cells over monocytes and CD4+ T cells. […] Amino acid substitutions and the amino acid sequences of representative mutant monomer IL-10 polypeptides that were evaluated are shown in Table 4A. […] In all cases, the IL-10 polypeptide was expressed as a fusion protein, with the antibody binding domain specified in column 2, and the format shown in parentheses, based on the schematics depicted in FIG. 6.

Wild type IL-10 dimer fused to xhCD8b (format E), sequence (P22301 19-178 limits assumed, chain 1 of 2): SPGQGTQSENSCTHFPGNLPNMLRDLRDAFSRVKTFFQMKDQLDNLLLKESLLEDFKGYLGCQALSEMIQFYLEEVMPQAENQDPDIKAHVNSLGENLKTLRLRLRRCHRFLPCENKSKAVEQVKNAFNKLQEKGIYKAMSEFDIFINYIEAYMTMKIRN
Wild type IL-10 dimer fused to xhCD8b (format E), sequence (P22301 19-178 limits assumed, chain 2 of 2): as the sequence (P22301 19-178 limits assumed, chain 1 of 2) above

B1: human IL-10RA ECD (receptor)
chain: HGTELPSPPSVWFEAEFFHHILHWTPIPNQSESTCYEVALLRYGIESWNSISNCSQTLSYDLTAVTLDLYHSNGYRARVRAVDGSRHSNWTVTNTRFSVDEVTLTVGSVNLEIHNGFILGKIQLPRPKMAPANDTYESIFSHFREYEIAIRKVPGNFTFTHKKVKHENFSLLTSGEVGEFCVQVKPSVASRSNKGMWSKEECISLTRQYFTVTN
notes: In-house generated ECD; A biotinylated form held the fusions on the chip in the IL-10RB assay
  Kd: 4.5 nM
